According to publication doi:10.1101/2021.12.26.474192 (bioRxiv, 2021):

B1: psNb 2-65 (VHH)
VHH: HVQLVESGGGLVQAGGSLRLSCAASGTISTLNAMGWYRQAPGKQRELLASISNLGTTYHADSVAGRFTISRGSAKNTVNLQMNSLKPDDTAVYYCNTRVLEGGTQIRDYWGQGTQVTVSS
B2: psNb 1-23 (VHH)
VHH: QVQLVESGGGLVQAGGSLRLSCAASGRTDSISDMGWFRQAPGKEREFVAVVGWSGGGTDYAHSVKGRFTISRDNAKNTVYLQMNSLKPEDTAVYYCAVGSLRVGSFSVEYWGQGTQVTVSS
B3: psNb 2-38 (VHH)
VHH: QVQLVESGGGLVQAGGSLRLSCAAAARFSTSAMGWFRQAPGKEREFVAAISWSNTNTHYADTVKGRFTISADTAKETVDLQMNSLKPEDTAVYYCVQGGWGIRQPIIVDYWGKGTQVTVSS
B4: psNb 1-25 (VHH)
VHH: HVQLVESGGGLVQAGGSLRLSCATSGRTFSTYRMSWFRQAPGKEREFVATIIWSVGSTHYADSVKGRFTISRDNAKNMVYLQMNSLKPEDTAVYYCAAQRSDSSSWGYEDDYDYWGQGTQVTVSS
B5: psNb 1-22 (VHH)
VHH: HVQLVESGGGLVQPGGSLRLSCAASGRSFNSYLMGWFRQAPGKEREFVAWISGSPHDIIRYRDSVKDRFTISRDNAKNTVYLQMNSLKPVDTAVYYCAVGSLRVGSFSPDYWGQGTQVTVSS
B6: psNb 2-57 (VHH)
VHH: QVQLVESGGGLVQAGGSLRLSCAVSGRTISTFGMGWFRQAPGKEREFVATITRDEDMLLYADSVKGRFTISRDTAKNMVFLQMNSLKIEDTALYYCAVRRDSSWGYSRQSTEYDYWGQGTQVTVSS
B7: psNb 2-31 (VHH)
VHH: QVQLVESGGGLVQAGESLRLSCAASKPTFRNFAAGWFRQTPGKDREFVAVIEYDGDSAYYADSVKGRFTISRDNAKNTVYLQMNRLKPGDTAVYICAIGGNHYDPSKYYTADEYDYWGQGTQVTVSS
B8: psNb 1-21 (VHH)
VHH: HVQLVESGGGLVQAGGSLRLSCAAPGRTFSTSAMGWFRQAPGKEREFVAAIDWSNTNIHYADTVKGRFTISTDTAKNTVYLQMNNLKPEDTAVYYCAQGGWGLTQPISVDYWGKGTQVTVSS
B9: psNb 2-45 (VHH)
VHH: QVQLVESGGGLVQAGGSLRLSCTASGYDFSILAIAWYRQAPGKERELVAAISRVGSTDYADSVKGRFTISRDNTKNTVSLQMDSLKPEDTAVYYCNAGIPMTTVLSGLGFWGQGTQVTVSS
B10: psNb 2-34 (VHH)
VHH: HVQLVESGGGLVQAGGSLRLSCAASGRTFSRYAAGWFRQAPGKEREFVAVIEWDGDSAYYADPVKGRFTISRDNAKNTVYLQMNRLKPEDTAVYICAVGGNHYSRSKYYNLDEYDDWGQGTQVTVSS
B11: psNb 2-67 (VHH)
VHH: EVQLVESGGGLVQTGGSLRLSCALSGYTFSIFPTAWFRQAPGKEREFVAGIRWNGSTRDYTEYADFVKGRFTISRDNAKNMVYLQMISLKPEDTALYYCAASDGVIDGTNANAYRYWGQGTQVTVSS

Legend:
[1] = molecular target: T1, SARS-CoV-2 spike HexaPro (S) (SARS-CoV-2, Wuhan-Hu-1, UniProt P0DTC2, stabilised); test: cryo-EM structure
[2] = molecular target: T1, SARS-CoV-2 spike HexaPro (S); test: ELISA

Binder | binding result [1] | binding result [2]
B1 | binds | –
B2 | binds | –
B3 | binds | –
B4 | – | binds
B5 | binds | –
B6 | binds | –
B7 | – | binds
B8 | – | binds
B9 | binds | –
B10 | binds | –
B11 | – | binds
